Results from patent US20070003517A1 (UNIVERSITY OF MASSACHUSETTS, published 2007).

How the values were obtained:
[1] = tested on: T1, JIP-1 (as added to the in vitro protein kinase assay)
T1 sequence: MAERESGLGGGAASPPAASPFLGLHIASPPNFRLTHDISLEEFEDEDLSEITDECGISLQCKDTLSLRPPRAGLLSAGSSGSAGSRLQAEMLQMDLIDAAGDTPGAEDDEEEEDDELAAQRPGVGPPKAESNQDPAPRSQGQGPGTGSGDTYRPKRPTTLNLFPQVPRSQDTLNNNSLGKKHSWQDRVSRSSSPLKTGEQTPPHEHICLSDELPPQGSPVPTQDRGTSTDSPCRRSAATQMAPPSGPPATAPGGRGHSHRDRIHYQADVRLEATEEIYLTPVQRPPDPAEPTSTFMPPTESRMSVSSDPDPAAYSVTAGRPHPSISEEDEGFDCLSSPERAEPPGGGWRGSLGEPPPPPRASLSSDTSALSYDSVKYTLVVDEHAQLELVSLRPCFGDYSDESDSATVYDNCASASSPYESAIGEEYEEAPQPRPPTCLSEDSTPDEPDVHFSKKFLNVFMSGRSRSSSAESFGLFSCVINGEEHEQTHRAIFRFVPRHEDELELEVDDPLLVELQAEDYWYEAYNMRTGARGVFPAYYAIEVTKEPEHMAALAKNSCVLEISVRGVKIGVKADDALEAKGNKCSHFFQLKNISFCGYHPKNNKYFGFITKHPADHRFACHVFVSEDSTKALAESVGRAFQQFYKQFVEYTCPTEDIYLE

[2] = molecular target: T2, Flag epitope-tagged JNK1 (cell lysate) (human, UniProt P45983-2 1-384, limits assumed); experiment: GST pull-down from cell lysate, anti-Flag (M2) immunoblot
T2 construct: written N-terminal here
Procedure: To test whether JIP-1 binding to JNK is also isoform-dependent, a binding assay was utilized. Cell lysates (1 ml in TLB) containing JNK1, JNK2, or p38 MAP kinase, each tagged with the Flag epitope, were incubated with 5 μg GST-fusion proteins pre-bound to 10 μl glutathione-Sepharose. […] The GST-ATF2 fusion protein contains residues 1-109 of ATF2, and the GST-Jun fusion protein contains residues 1-79 of c-Jun. After incubation for one hour at 4° C. and three washes with TLB, bound proteins were detected by protein immunoblot analysis with the M2 monoclonal antibody, which is specific for the Flag epitope. Dérijard, et al., supra; Sluss et al., supra; Gupta et al., supra. When ATF2 or c-jun GST fusion proteins were used in this assay, binding to JNK1 was greater than binding to JNK2. This finding is consistent with the results of previous studies. […] The level of binding of these fusion proteins to JNK1 was similar to the level of binding to JNK2.

T2 sequence (P45983 other isoform, or with tags, fused parts or gaps limits assumed): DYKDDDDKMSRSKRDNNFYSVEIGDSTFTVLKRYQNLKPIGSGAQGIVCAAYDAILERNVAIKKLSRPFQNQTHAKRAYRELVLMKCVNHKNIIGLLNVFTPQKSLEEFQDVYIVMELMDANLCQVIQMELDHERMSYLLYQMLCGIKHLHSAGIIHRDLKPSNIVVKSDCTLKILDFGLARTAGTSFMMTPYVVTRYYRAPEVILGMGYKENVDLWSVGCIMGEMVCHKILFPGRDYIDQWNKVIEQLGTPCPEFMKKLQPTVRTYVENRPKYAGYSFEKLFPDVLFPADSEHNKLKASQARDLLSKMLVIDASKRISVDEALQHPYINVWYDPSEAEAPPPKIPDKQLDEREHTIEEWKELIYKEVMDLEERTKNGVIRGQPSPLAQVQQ

ERK2 (immune complex from CHO cells)
phosphorylation of substrate (myelin basic protein) by ERK, immune complex kinase assay [1]: JIP-1 caused no significant change in the phosphorylation of substrates by the related MAP kinases p38 and ERK2

JNK (immune complex from CHO cells)
phosphorylation of c-Jun (GST-Jun) by JNK, immune complex kinase assay [1]: JIP-1 markedly inhibited the phosphorylation of c-Jun by JNK

p38 (immune complex from CHO cells)
phosphorylation of substrate (GST-ATF2) by p38, immune complex kinase assay [1]: JIP-1 caused no significant change in the phosphorylation of substrates by the related MAP kinases p38 and ERK2

B1: GST-JIP-1 fusion protein containing residues 203-281 of JIP-1 (other)
chain: PHEHICLSDELPPQGSPVPTQDRGTSTDSPCRRSAATQMAPPSGPPATAPGGRGHSHRDRIHYQADVRLEATEEIYLTP
notes: not shown: glutathione-S-transferase (GST) of vector pGEX-3X
binding result [2]: no binding

B2: GST-JIP-1 fusion protein containing residues 164-240 of JIP-1 (other)
chain: PQVPRSQDTLNNNSLGKKHSWQDRVSRSSSPLKTGEQTPPHEHICLSDELPPQGSPVPTQDRGTSTDSPCRRSAATQ
notes: as for B1
binding result [2]: no binding
